In patent US20180036405A1:

Assays:
[1] = molecular target: human monomeric EGFR (EGFR.mmh) (human) (UniProt P00533); assay: SPR 37C, mAb captured by anti-human Fc, EGFR.mmh analyte
[2] = molecular target: EGFR on A431 epidermoid carcinoma cells (human) (UniProt P00533); assay: cell-based or functional assay
[3] = molecular target: human dimeric EGFR (EGFR.mFc) (human); assay: SPR 37C, mAb captured by anti-human Fc, EGFR.mFc analyte

Substance	Kd [1]	koff [1]	kon [1]	t1/2 [1]	ADCC EC50 [2]	IC50 of A431 Proliferation [2]	Maximum Cell Killing (%) [2]	Kd [3]	koff [3]	kon [3]	t1/2 [3]
Control I: a chimeric anti-EGFR antibody with heavy and light chain variable sequences of "mAb 225" as set forth in U.S. Pat. No. 7,060,808	4.68 nM	0.00738 s⁻¹	1.58e+06 M⁻¹ s⁻¹	2 min	1.86e-12 Molar	3.35e-10 Molar	24%	0.0303 nM	0.000108 s⁻¹	3.55e+06 M⁻¹ s⁻¹	107 min
Control II: a commercially available fully human monoclonal anti-EGFR antibody designated as ABX-EGF	–	–	–	–	–	–	–	0.0423 nM	–	–	198 min
